Test [1] concerns the target T1, soluble human BLyS (human, UniProt Q9Y275 134-285).
T1 construct: also called hBLyS; human BAFF (BLyS)
The test is described as follows: DELFIA competition, Eu-hBLyS binding to coated BCMA. The method, then:
(§1) After 5× washing with 200 ul/well of DELFIA 1× wash solution (PE, Cat #4010-0010), plates were blocked with 3% BSA purified from trace heavy metal amounts (PE, Cat #CR84-100) for 3 hours with shaking at room temperature. Plates were washed again five times at 200 μl/well with DELFIA wash solution.
(§2) The final 3 wells across the plate served as controls (2 wells contained 2,000 pM mAbs for negative and background controls while the third contained no mAbs for positive control). […] After 18-24 hrs at 4° C., plates were read on PE EnVision plate reader with laser excitation, LANCE/DELFIA top mirror, and emission filter Eu-615 with a delay of 400 μs. Data were fit to four parameter (variable slope) inhibition dose response curve using GraphPad PRISM 5.0 software.

Test [2] deals with T2, soluble mouse BLyS (mouse, UniProt Q9WU72 127-309).
T2 construct: europium-labelled in DELFIA; also called mBLyS; mouse BAFF (BLyS)
The test can be described thus: Biacore T100, binder captured by anti-human Fc, BLyS injected, 1:1 model. On the procedure:
(§3) A Series S CM5 Chip (GE Healthcare) was amine coupled with an anti-human Fc capturing antibody (GE Healthcare Human Fc Kit) to >10,000 RUs. Sample antibodies were diluted in 1×HBS-EP+ running buffer to 0.15 ug/mL and injected for 45 seconds at 10 uL/min. […] Biacore Evaluation software was used to fit the data to a 1:1 Binding Model.
Background: SPR reads the build-up and loss of mass on a sensor chip optically.

Test [3] addresses T1, soluble human BLyS. Described as above. On the procedure: as §3
Test [4] addresses T2, soluble mouse BLyS. The test is described as follows: DELFIA competition, Eu-mBLyS binding to coated BCMA. The method, then: as §1, §2
The target in test [5] is T2, soluble mouse BLyS. The test can be described thus: DELFIA competition, Eu-mBLyS binding to coated BR3. The method, then:
as §1, §2

Test [6] deals with T2, soluble mouse BLyS. The test can be described thus: DELFIA competition, Eu-mBLyS binding to coated TACI. On the procedure:
as §1, §2

The target of test [7] is T1, soluble human BLyS. The test can be described thus: DELFIA competition, Eu-hBLyS binding to coated BR3. On the procedure: as §1, §2
Test [8] has as its target T2, soluble mouse BLyS. The test can be described thus: Biacore, antibody captured on chip, BLyS injected, 1:1 model, 25 C. On the procedure: (§4) Recombinant protein NG (Thermo Scientific, Cat #21186) was diluted to 100 μg/ml in 10 mM sodium acetate pH 4.0 and then immobilized on the surface of a pre-activated Series S CM5 Biacore chip (GE, Cat #BR-1005-34) using amine coupling. […] After the dissociation period, the chip was regenerated back to baseline by injecting 10 mM glycine pH 1.5 for 120 seconds over the four flow cells. […] The entire data set was fit to a 1:1 interaction model to give kₒₙ, koff, and Kd values. The assay was run at 25° C. in 1× biacore running buffer HBS-EP+ (GE, Cat #BR-1006-69).

For test [9], the target named is T1, soluble human BLyS. Described as above. On the procedure: as §4
For the next test, the target named is T3, human APRIL (human, UniProt O75888 105-250, limits assumed).
T3 construct: Bought recombinant protein; also called hAPRIL
T3 sequence (looked up): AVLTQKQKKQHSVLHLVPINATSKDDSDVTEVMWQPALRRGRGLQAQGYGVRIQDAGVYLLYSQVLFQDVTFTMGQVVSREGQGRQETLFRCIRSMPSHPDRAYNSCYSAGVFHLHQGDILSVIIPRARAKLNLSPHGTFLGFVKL
The test can be described thus: Biacore, antibody captured, APRIL injected. On the procedure:
(§5) Recombinant protein NG (Thermo Scientific, Cat #21186) was diluted to 100 μg/ml in 10 mM Sodium Acetate pH 4.0 and then immobilized on the surface of a pre-activated Series S CM4 Biacore chip (GE, Cat #BR-1005-34) using amine coupling. […] Binding response was measured as the difference in total RU increase during 300 second APRIL injection of each individual flow cell and the reference flow cell (e.g., Flow cell 2-1).

The next test addresses T4, mouse APRIL (mouse, UniProt Q9D777 96-241, limits assumed).
T4 construct: Bought recombinant protein; also called mAPRIL
T4 sequence (looked up): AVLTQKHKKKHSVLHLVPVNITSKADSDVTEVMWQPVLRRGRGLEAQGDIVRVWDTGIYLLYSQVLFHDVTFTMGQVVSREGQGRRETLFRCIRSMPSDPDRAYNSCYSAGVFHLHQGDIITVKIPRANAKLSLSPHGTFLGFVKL
The test can be described thus: Biacore, antibody captured, APRIL injected. The method, then: as §5

The target in test [10] is T1, soluble human BLyS. The test can be described thus: DELFIA competition, Eu-hBLyS binding to coated TACI. On the procedure: as §1, §2
The target in test [11] is T2, soluble mouse BLyS. The test is described as follows: Biacore.
The target of test [12] is T1, soluble human BLyS. The test is described as follows: Biacore.
Test [13] has as its target T2, soluble mouse BLyS. The test is described as follows: ELISA, soluble mBLyS. (ELISA stands for enzyme-linked immunosorbent assay.)
In test [14] the target is T1, soluble human BLyS. The test can be described thus: ELISA, soluble hBLyS.
Test [15] deals with T1, soluble human BLyS. The test can be described thus: blocking of biotinylated soluble hBLyS binding to immobilized mBR3.
The target of the next test is T5, soluble cynomolgus BLyS (cynomolgus, UniProt A0A2K5V2X4 134-285).
T5 construct: Soluble form; also called cyBLyS; Soluble cyBLyS
The test can be described thus: ELISA, soluble cyBLyS.

B1: 6C10 IgG1 F243A/V264A double mutein expressed in Pichia pastoris (antibody, V domains shown)
VH: EVQLVQSGAEVKKPGASVKVSCKASGYTFTSYGISWVRQAPGQGLEWMGWISAYNGNTNYAQKLQGRVTMTTDTSTSTAYMELRSLRSDDTAVYYCARTYYDILTGYYYYYGMDVWGQGTTVTVSS
VL: EIVLTQSPGTLSLSPGERAMLSCRASQSVGNYLAWYQQKPGQAPRLLIYDASNRATGIPARFSGSGSGTDFTLTINSLEPEDFAVYYCQQRSNWPLTFGGGTKVEIKR
notes: IgG1 F243A/V264A (EU) double mutein, alpha-2,6-sialylated, from glycoengineered Pichia pastoris; also called 6C10-DM; 6C10-DM (Pichia)
Usually IC50 stands for the concentration at which inhibition is half-maximal. As usually defined, the Kd is the concentration at which binding is half-saturated. Higher therefore signals weaker binding. The term koff denotes the rate constant with which the complex falls apart. Read a low koff as slow dissociation. By kon is commonly meant the rate constant with which the complex forms. Read a low kon as slower complex formation. For B1, the IC50 was 0.017 nM in the test with soluble human BLyS [1]; greater than 2 nM with soluble mouse BLyS [4]; greater than 2 nM in the test with soluble mouse BLyS [5]; 0.445 nM with soluble mouse BLyS [6]; 0.0873 nM with soluble human BLyS [7]; 0.00074 nM with soluble human BLyS [10]. The equilibrium dissociation constant (Kd) is 0.232 nM with soluble mouse BLyS [2], 0.068 nM with soluble human BLyS [3], 0.234 nM with soluble mouse BLyS [8] and 0.421 nM with soluble human BLyS [9]. Also, the koff with soluble mouse BLyS [2] was 0.000224 s⁻¹; in the test with soluble human BLyS [3], 2.5e-05 s⁻¹; in the test with soluble mouse BLyS [8] it was 7.9e-05 s⁻¹; with soluble human BLyS [9] it was 5.5e-05 s⁻¹. Further, the kon in the test with soluble mouse BLyS [2] came out at 967000 M⁻¹ s⁻¹; with soluble human BLyS [3], 368000 M⁻¹ s⁻¹; with soluble mouse BLyS [8], 330000 M⁻¹ s⁻¹; with soluble human BLyS [9], 130000 M⁻¹ s⁻¹. Besides, the binding result with human APRIL and in the test with mouse APRIL was “no binding (tested: 50 nM)” throughout.

B2: 6C10 IgG expressed in HEK293 cells (antibody, V domains shown)
VH: B1 VH
VL: B1 VL
notes: IgG from HEK293-FreeStyle cells; also called 6C10 (293)
For the molecule B2, the IC50 with soluble human BLyS [1] was 0.0106 nM; in the test with soluble mouse BLyS [4], 0.098 nM; with soluble mouse BLyS [13], 0.05 nM; with soluble mouse BLyS [5], 0.784 nM; in the test with soluble mouse BLyS [6], 0.679 nM; with soluble human BLyS [7], 0.121 nM. Besides, the half-maximal inhibitory concentration (IC50) turned out to be 0.12 nM with soluble human BLyS [14], 0.33 nM with soluble human BLyS [15], 0.1 nM with soluble cynomolgus BLyS and 0.00067 nM with soluble human BLyS [10]. Further, the dissociation constant (Kd) with soluble mouse BLyS [11] worked out at 0.0216 nM; with soluble human BLyS [12], 0.51 nM; with soluble mouse BLyS [8], 0.334 nM; with soluble human BLyS [9], 0.434 nM. The off-rate constant (koff) with soluble mouse BLyS [8] turned out to be 6.7e-05 s⁻¹; in the test with soluble human BLyS [9] it was 5e-05 s⁻¹. Moreover, the association rate constant (kon) with soluble mouse BLyS [8] is 200000 M⁻¹ s⁻¹; in the test with soluble human BLyS [9] it was 120000 M⁻¹ s⁻¹. Also, the binding result with human APRIL and with mouse APRIL was “no binding (tested: 50 nM)” in each case.

B3: 8A12 IgG expressed in HEK293 cells (antibody, V domains shown)
VH: QVQLVQSGGGLVQPGGSLRLSCAASGFTFSSYAMSWVRQAPGKGLEWVSAISGSGGSTYYADSVKGRFTISRDNSKNTLYLQMNSLRAEDTAVYYCAREGQGYDILTGYYTRGYYFDYWGQGTLVTVSS
VL: QSALTQPASVSGSPGQSITISCTGTSSDVGGYNYVSWYQQLPGKAPKLMIYEVSKRPSGVPDRFSGSKSGNTASLTISGLQAEDEADYYCSSYAGSSSWVFGGGTKLTVLG
notes: IgG from HEK293-FreeStyle cells
For the molecule B3, the values for the Kd in the test with soluble mouse BLyS [11] and with soluble human BLyS [12] were 0.0224 nM and 4.26 nM, respectively. The IC50 worked out at 0.05 nM with soluble mouse BLyS [13], 16 nM with soluble human BLyS [14], 2.97 nM with soluble human BLyS [15] and 0.32 nM with soluble cynomolgus BLyS.

B4: 9F8 IgG expressed in HEK293 cells (antibody, V domains shown)
VH: QVQLQQSGAEVKKPGASVKVSCKASGYTFTSYYMHWVRQAPGQGLEWMGWINAGNGNTKYSQKFQGRVTITRDTSASTAYMELSSLRSEDTAVYYCARDNLSYDILTGYSFGGWFDPWGQGTLVTVSS
VL: QSALTQPASVSGSPGQSITISCTGTSSDIGRYNYVSWYQQRPGRAPKVIIYDVSSRPSGVSKRFSASKSGNTASLTISGLQAEDEAVYYCSSYTRITTLYVFGPGTKVTVLG
notes: as for B3
On to B4, for which the Kd with soluble mouse BLyS [11] came to 0.0456 nM; with soluble human BLyS [12], 1.1 nM. In addition, the IC50 in the test with soluble mouse BLyS [13] stood at 0.07 nM; with soluble human BLyS [14] it was 0.15 nM; in the test with soluble human BLyS [15], 5.31 nM; with soluble cynomolgus BLyS it was 0.07 nM.

B5: 8D12 IgG1 F243A/V264A double mutein expressed in Pichia pastoris (antibody, V domains shown)
VH: QVQLVQSGAEVKKPGASVKVSCKASGYTFTSYAMHWVRQAPGQRLEWMGWINAGNGNTKYSQKFQGRVTITRDTSASTAYMELSSLRSEDTAVYYCARAYYDILTGYSVYGMDVWGQGTTVTVSS
VL: EIVLTQSPATLSLSPGERATLSCRANESVGNYLAWYQQKPGQAPRLLIYGASRRATGIPDRFSGSGSGTDFTLTISRLEPEDFAVYYCQQYGSSLLTFGGGTKVEIKR
notes: IgG1 F243A/V264A (EU) double mutein, alpha-2,6-sialylated, from glycoengineered Pichia pastoris; also called 8D12-DM; 8D12-DM (Pichia)
B5: the IC50 is 1.28 nM with soluble human BLyS [1]; greater than 2 nM with soluble mouse BLyS [4]; greater than 2 nM with soluble mouse BLyS [5]; greater than 2 nM with soluble mouse BLyS [6]; 0.101 nM in the test with soluble human BLyS [7]; less than 0.0003 nM with soluble human BLyS [10]. Also, the Kd with soluble mouse BLyS [2] was determined as 0.134 nM; with soluble human BLyS [3], 0.049 nM; with soluble mouse BLyS [8], 0.099 nM; with soluble human BLyS [9], 0.138 nM. The dissociation rate constant (koff) with soluble mouse BLyS [2] is 0.000196 s⁻¹; in the test with soluble human BLyS [3], 5.4e-05 s⁻¹; in the test with soluble mouse BLyS [8], 5.7e-05 s⁻¹; with soluble human BLyS [9], 3.5e-05 s⁻¹. Also, the kon with soluble mouse BLyS [2] came out at 1.46e+06 M⁻¹ s⁻¹; with soluble human BLyS [3] it was 1.11e+06 M⁻¹ s⁻¹; with soluble mouse BLyS [8] it was 580000 M⁻¹ s⁻¹; with soluble human BLyS [9] it was 260000 M⁻¹ s⁻¹. Moreover, the binding result in the test with human APRIL and with mouse APRIL was “no binding (tested: 50 nM)” throughout.

B6: 8D12 IgG expressed in HEK293 cells (antibody, V domains shown)
VH: B5 VH
VL: B5 VL
notes: IgG from HEK293-FreeStyle cells; also called 8D12 (293)
Regarding B6, the IC50 is 0.63 nM with soluble human BLyS [1]; greater than 2 nM with soluble mouse BLyS [4]; 0.16 nM with soluble mouse BLyS [13]; greater than 2 nM with soluble mouse BLyS [5]; greater than 2 nM with soluble mouse BLyS [6]; 0.0622 nM in the test with soluble human BLyS [7]. Moreover, the concentration for half-maximal inhibition (IC50) with soluble human BLyS [14] was 0.13 nM; with soluble human BLyS [15] it was 10 nM; with soluble cynomolgus BLyS, 0.08 nM; with soluble human BLyS [10], less than 0.0003 nM. The Kd in the test with soluble mouse BLyS [11] stood at 0.028 nM; in the test with soluble human BLyS [12], 0.66 nM. Further, the binding result with human APRIL and with mouse APRIL was “no binding (tested: 50 nM)” in each case.

The values are drawn from patent US20170101466A1 (published 2017).
